Data taken from publication PMC9482650, “Quantitative fragmentomics allow affinity mapping of interactomes” (Nature Communications, 2022).

Tests used:
Assay in all cases: holdup assay
Parameters in all cases: key: below the threshold = too weak to quantify, mostly under pKd 3.1 to 4
Conditions in all cases: plain residues with an end cap or a label only (N-terminal biotin on a linker: ado-ado)
HTRA3, P83110 = target: T1, HTRA3, P83110
T1 sequence (P83110 354-453, limits assumed, looked up): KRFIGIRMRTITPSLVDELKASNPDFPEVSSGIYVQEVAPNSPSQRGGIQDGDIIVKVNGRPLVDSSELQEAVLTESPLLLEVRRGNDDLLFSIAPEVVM

PTPN3, P26045 = target: PTPN3, P26045
TJP1_3, Q07157 = target: TJP1_3, Q07157
SCRIB_3, Q14160 = target: SCRIB_3, Q14160
Inadl_9, Q8NI35 = target: Inadl_9, Q8NI35
GOPC, Q9HD26 = target: GOPC, Q9HD26
TJP2_1, Q9UDY2 = target: TJP2_1, Q9UDY2
PDZRN4_1, Q6ZMN7 = target: PDZRN4_1, Q6ZMN7
Inadl_10, Q8NI35 = target: Inadl_10, Q8NI35
AHNAK1, Q09666 = target: AHNAK1, Q09666
DLG3_3, Q92796 = target: T2, DLG3_3, Q92796
T2 sequence (Q92796 374-475, limits assumed, looked up): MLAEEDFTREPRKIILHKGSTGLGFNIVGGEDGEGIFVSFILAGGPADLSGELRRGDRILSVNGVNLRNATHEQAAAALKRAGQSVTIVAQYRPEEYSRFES

GRIP1_5, Q9Y3R0 = target: T3, GRIP1_5, Q9Y3R0
T3 sequence (Q9Y3R0 568-668, limits assumed, looked up): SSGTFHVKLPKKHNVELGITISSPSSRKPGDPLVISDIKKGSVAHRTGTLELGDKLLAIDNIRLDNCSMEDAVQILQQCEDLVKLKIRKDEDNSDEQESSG

Inadl_8, Q8NI35 = target: Inadl_8, Q8NI35
DVL3, Q92997 = target: T4, DVL3, Q92997
T4 sequence (Q92997 244-331, limits assumed, looked up): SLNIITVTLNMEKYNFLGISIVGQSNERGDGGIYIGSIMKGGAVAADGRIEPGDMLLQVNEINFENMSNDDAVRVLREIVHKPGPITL

NOS1, P29475 = target: NOS1, P29475
FRMPD1, Q5SYB0 = target: T5, FRMPD1, Q5SYB0
T5 sequence (Q5SYB0 52-145, limits assumed, looked up): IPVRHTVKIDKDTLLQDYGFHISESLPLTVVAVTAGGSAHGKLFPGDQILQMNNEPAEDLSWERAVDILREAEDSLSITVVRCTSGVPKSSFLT

DFNB31_2, Q9P202 = target: T6, DFNB31_2, Q9P202
T6 sequence (Q9P202 274-371, limits assumed, looked up): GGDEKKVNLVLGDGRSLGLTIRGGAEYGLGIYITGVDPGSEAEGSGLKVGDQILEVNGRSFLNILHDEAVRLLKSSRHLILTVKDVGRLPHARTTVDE

APBA1_1, Q02410 = target: T7, APBA1_1, Q02410
T7 sequence (Q02410 651-752, limits assumed, looked up): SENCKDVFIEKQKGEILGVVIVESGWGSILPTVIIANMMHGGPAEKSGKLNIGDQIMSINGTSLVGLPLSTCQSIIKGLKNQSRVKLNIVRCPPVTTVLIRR

Inadl_5, Q8NI35 = target: Inadl_5, Q8NI35
SCRIB_1, Q14160 = target: SCRIB_1, Q14160
DLG1_2, Q12959 = target: DLG1_2, Q12959
GRIP2_3, Q9C0E4 = target: GRIP2_3, Q9C0E4
DLG1_3, Q12959 = target: DLG1_3, Q12959
NHERF4_1, Q86UT5-2 = target: NHERF4_1, Q86UT5-2
FRMPD3, Q5JV73 = target: FRMPD3, Q5JV73
APBA1_2, Q02410 = target: T8, APBA1_2, Q02410
T8 sequence (Q02410 742-832, limits assumed, looked up): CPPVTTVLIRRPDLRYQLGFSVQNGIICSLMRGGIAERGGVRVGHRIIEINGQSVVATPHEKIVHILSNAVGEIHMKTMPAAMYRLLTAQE

Inadl_4, Q8NI35 = target: Inadl_4, Q8NI35
PDLIM1, O00151 = target: PDLIM1, O00151
LNX2_2, Q8N448 = target: T9, LNX2_2, Q8N448
T9 sequence (Q8N448 334-432, limits assumed, looked up): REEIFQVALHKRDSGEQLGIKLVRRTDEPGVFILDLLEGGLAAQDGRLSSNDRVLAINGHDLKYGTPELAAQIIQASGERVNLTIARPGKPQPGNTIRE

PTPN3, P26045, sequence (P26045 505-587): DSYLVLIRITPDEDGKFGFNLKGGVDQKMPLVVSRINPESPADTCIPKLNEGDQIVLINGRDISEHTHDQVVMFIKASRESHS
NOS1, P29475, sequence (P29475 9-101): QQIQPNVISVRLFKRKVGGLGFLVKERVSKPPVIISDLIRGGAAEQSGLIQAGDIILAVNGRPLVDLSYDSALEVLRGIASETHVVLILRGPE
TJP1_3, Q07157, sequence (Q07157 416-512): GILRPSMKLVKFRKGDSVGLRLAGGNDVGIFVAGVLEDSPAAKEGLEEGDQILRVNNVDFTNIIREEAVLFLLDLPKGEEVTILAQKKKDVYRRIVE
Inadl_10, Q8NI35, sequence (Q8NI35 1673-1763): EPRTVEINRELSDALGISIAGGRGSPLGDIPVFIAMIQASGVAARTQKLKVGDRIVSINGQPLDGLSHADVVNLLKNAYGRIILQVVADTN
PDZRN4_1, Q6ZMN7, sequence (Q6ZMN7 213-318): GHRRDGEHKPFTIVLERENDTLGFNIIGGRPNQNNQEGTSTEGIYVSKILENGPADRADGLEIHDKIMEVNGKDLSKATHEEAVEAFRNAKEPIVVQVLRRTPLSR
GRIP2_3, Q9C0E4, sequence (Q9C0E4 238-339): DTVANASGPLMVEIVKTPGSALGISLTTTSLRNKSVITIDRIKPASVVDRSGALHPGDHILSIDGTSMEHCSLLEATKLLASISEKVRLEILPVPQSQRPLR
PDLIM1, O00151, sequence (O00151 1-87): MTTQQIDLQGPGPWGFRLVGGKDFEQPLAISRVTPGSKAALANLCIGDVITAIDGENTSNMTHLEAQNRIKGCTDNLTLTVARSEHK
FRMPD3, Q5JV73, sequence (Q5JV73 12-100): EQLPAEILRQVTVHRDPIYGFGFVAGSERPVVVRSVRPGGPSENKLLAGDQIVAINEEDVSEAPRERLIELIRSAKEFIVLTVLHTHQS
Inadl_4, Q8NI35, sequence (Q8NI35 547-651): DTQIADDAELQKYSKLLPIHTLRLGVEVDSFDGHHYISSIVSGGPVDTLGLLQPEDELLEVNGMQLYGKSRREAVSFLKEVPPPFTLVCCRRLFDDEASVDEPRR
SCRIB_1, Q14160, sequence (Q14160 718-814): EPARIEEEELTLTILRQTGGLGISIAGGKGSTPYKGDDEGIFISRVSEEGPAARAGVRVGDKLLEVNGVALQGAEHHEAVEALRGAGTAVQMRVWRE
DLG1_2, Q12959, sequence (Q12959 314-412): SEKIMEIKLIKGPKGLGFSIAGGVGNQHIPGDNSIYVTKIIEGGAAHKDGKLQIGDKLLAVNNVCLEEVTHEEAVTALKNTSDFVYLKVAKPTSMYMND
Inadl_5, Q8NI35, sequence (Q8NI35 673-780): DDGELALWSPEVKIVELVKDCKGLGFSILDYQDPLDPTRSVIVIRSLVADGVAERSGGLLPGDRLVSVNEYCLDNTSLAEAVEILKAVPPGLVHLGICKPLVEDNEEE
Inadl_9, Q8NI35, sequence (Q8NI35 1530-1615): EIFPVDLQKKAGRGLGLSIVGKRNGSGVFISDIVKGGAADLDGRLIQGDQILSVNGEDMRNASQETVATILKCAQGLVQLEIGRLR
SCRIB_3, Q14160, sequence (Q14160 999-1103): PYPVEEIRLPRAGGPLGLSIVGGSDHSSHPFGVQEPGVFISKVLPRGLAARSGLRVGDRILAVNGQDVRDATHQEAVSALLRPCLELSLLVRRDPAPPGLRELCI
AHNAK1, Q09666, sequence (Q09666 4-100): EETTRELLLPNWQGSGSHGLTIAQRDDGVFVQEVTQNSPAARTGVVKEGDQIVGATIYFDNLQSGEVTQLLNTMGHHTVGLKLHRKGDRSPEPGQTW
NHERF4_1, Q86UT5-2, sequence (Q86UT5 other isoform, or with tags, fused parts or gaps): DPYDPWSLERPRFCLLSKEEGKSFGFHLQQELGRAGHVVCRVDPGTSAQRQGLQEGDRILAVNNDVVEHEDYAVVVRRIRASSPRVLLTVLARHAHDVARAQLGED
DLG1_3, Q12959, sequence (Q12959 457-571): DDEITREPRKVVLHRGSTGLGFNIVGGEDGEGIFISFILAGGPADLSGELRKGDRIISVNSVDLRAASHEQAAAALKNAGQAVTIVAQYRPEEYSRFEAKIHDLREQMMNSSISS
TJP2_1, Q9UDY2, sequence (Q9UDY2 24-128): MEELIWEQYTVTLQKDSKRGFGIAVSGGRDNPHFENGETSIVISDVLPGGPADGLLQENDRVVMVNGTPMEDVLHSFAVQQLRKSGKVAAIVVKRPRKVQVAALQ
Inadl_8, Q8NI35, sequence (Q8NI35 1425-1530): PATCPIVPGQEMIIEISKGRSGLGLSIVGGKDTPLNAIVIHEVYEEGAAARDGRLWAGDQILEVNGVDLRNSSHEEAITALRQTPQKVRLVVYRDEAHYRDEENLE

Binder | pKd (HTRA3, P83110) | pKd (PTPN3, P26045) | pKd (TJP1_3, Q07157) | pKd (SCRIB_3, Q14160) | pKd (Inadl_9, Q8NI35) | pKd (GOPC, Q9HD26) | pKd (TJP2_1, Q9UDY2) | pKd (PDZRN4_1, Q6ZMN7) | pKd (Inadl_10, Q8NI35) | pKd (AHNAK1, Q09666) | pKd (DLG3_3, Q92796) | pKd (GRIP1_5, Q9Y3R0) | pKd (Inadl_8, Q8NI35) | pKd (DVL3, Q92997) | pKd (NOS1, P29475) | pKd (FRMPD1, Q5SYB0) | pKd (DFNB31_2, Q9P202) | pKd (APBA1_1, Q02410) | pKd (Inadl_5, Q8NI35) | pKd (SCRIB_1, Q14160) | also measured
APIAGFSSFV [SDK2, Q58EX2] | 4.49 | 4.39 | below the threshold | 4.06 | 3.96 | 4.13 | 4.19 | 3.79 | 4.25 | below the threshold | below the threshold | below the threshold | 4.34 | 3.88 | 3.53 | below the threshold | 3.52 | below the threshold | 3.82 | below the threshold | pKd (DLG1_2, Q12959): 4.45; pKd (GRIP2_3, Q9C0E4): below the threshold; pKd (DLG1_3, Q12959): below the threshold; pKd (NHERF4_1, Q86UT5-2): 3.59; pKd (FRMPD3, Q5JV73): below the threshold; pKd (APBA1_2, Q02410): 4.15; pKd (Inadl_4, Q8NI35): below the threshold; pKd (PDLIM1, O00151): below the threshold; pKd (LNX2_2, Q8N448): 4.13
RFQQRMQTHV [KIRREL1, Q96J84] | below the threshold | 4.2 | below the threshold | 4.33 | below the threshold | 3.91 | 4.82 | below the threshold | below the threshold | below the threshold | 3.94 | below the threshold | 3.72 | below the threshold | below the threshold | below the threshold | below the threshold | below the threshold | 3.6 | 4.25 | pKd (DLG1_2, Q12959): 4.74; pKd (GRIP2_3, Q9C0E4): below the threshold; pKd (DLG1_3, Q12959): 3.68; pKd (NHERF4_1, Q86UT5-2): 3.7; pKd (FRMPD3, Q5JV73): below the threshold; pKd (APBA1_2, Q02410): 3.92; pKd (Inadl_4, Q8NI35): below the threshold; pKd (PDLIM1, O00151): below the threshold; pKd (LNX2_2, Q8N448): 4.08
